Source: US20240254231A1 (published 2024)
Substitutions are numbered along the chain they refer to.

B1: PMX126 (antibody, V domains shown)
VH: EVQLVESGGDLVKPAGSLRLSCLASGFTFSSYSMSWVRQAPEKGLQSVAGINSDGDRTYYTDAVKGRFTISRDNAKSTVYLQMNSLRAEDTAMYYCVRGFSSFNAFGYWGQGTLVTVSS
VL: DIVMTQTPLSLSVSPGETASISCKASQSLLHSDGNTYLSWFRQKPGQSPHRLIYAVSHRHPGVPDRFSGSGSGTDFTLRISRVEADDAGLYYCGQVIQDPWTFGAGTKVELK
B2: PMX152 (antibody, V domains shown)
VH: EVQLVESGGDLVKPGGSLRLSCVASGFTFSRYYMNWVRQAPGKGPQWVAYINNAGSDRNYVDAVKGRFTISRDNAKNTLYLQMNSLRAEDTAVYYCASEIRGVVVVGHLDYWGQGTLVTVSS
VL: SYVLTQLPSKSVTLNQPAHITCGGDNIGSKSVHWYQQKLGQAPVLIIYYDSIRPTGIPERFSGATSGNTATLTISGALAEDEADYYCQVWDSSAKAWVFGEGTQLTVL
B3: PD-1 (receptor)
chain: LDSPDRPWSPLTFSPAQLTVQEGENATFTCSLADIPDSFVLNWYRLSPRNQTDKLAAFQEDRIEPGRDRRFRVTRLPNGRDFHMSIVAARLNDSGIYLCGAIYLPPNTQINESPRAELSVTERTLEPPTQSPSPPPRLSGQLQGLVIGVTSVLVGVLLLLLLTWVLAAVFPRATRGACVCGSEDEPLKEGPDAAPVFTLDYGELDFQWREKTPEPPAPCAPEQTEYATIVFPGRPASPGRRASASSLQGAQPPSPEDGPGLWPL
B4: PMX125 (antibody, V domains shown)
VH: EVQLVESGGDLVKPGGSLRLSCVASGFSFSRYHMSWVRQAPGKGLQWVAYIISGGITTSYADAVKGRFTISRDNAKNTLFLQMNSLRAEDTAVYYCATYGSYFFDKWGQGTLVTVSS
VL: DIVMTQTPLSLSVSPGETASISCKASQSLLHSDGKSYLNWFRQKPGQSPQRLIYRVSNRDPGVPDRFSGSGSGTDFTLRISRVEADDTGLYYCGQVIQDPTFGAGTKVELK
B5: PMX127 (antibody, V domains shown)
VH: B4 VH with I52V, T57S, K106T
VL: B4 VL with S22F
B6: PMX151 (antibody, V domains shown)
VH: EVQLVESGGDLVKSGGSLRLSCVASGFTFNTYSMNWVRQAPGKGLQWVARIKSSGSSTTYADAVKGRFTVSRDIAKNTLFLQMNSLRAEDTALYYCASEPGARYEIYFVESFFDYWGQGTLVTVSS
VL: B2 VL with N15K, I52S, T65N, K95Q, V98I

What was measured:
[1] = target: T1, canine PD-1, full-length, membrane-embedded; assay: flow cytometry; apparent Kd of cell binding
T1 chain: B3 chain

canine PD-1 ECD-6His = target: T2, canine PD-1 ECD-6His; assay: SPR; monovalent binding
T2 chain: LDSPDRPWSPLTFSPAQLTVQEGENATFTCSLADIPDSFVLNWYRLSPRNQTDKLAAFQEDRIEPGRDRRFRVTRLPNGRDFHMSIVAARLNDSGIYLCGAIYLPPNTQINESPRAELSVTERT

canine PD-1 ECD-mFc = target: T3, canine PD-1 ECD-mFc; assay: SPR; avid
T3 chain: T2 chain

PMX-150 = assay: flow cytometry; apparent Kd of cell binding
PMX-145 = assay: flow cytometry; apparent Kd of cell binding
PMX-149 = assay: flow cytometry; apparent Kd of cell binding
PMX-147 = assay: flow cytometry; apparent Kd of cell binding

| Binder | Kd [1] [nM] | Kd (canine PD-1 ECD-6His) [nM] | Kd (canine PD-1 ECD-mFc) [nM] | Kd (PMX-150) [nM] | Kd (PMX-145) [nM] | Kd (PMX-149) [nM] | Kd (PMX-147) [nM] |
| --- | --- | --- | --- | --- | --- | --- | --- |
| B1 | 1.05 | 6.8 | 0.0297 | – | – | – | – |
| B2 | – | 24.2 | 0.0318 | – | – | – | – |
| B3 | – | – | – | 6.83 | 5.75 | 8.23 | 2.65 |
| B4 | 1.07 | 7.7 | 0.0348 | – | – | – | – |
| B5 | 0.86 | 2.2 | 0.0024 | – | – | – | – |
| B6 | 2.97 | 1.7 | 0.0322 | – | – | – | – |
